According to patent US11278600B2, “Human alpha-galactosidase variants” (Codexis, Inc., priority 2014, dated 2022):
Residue numbers refer to the chain shown, from its start.

B1: 65 (protein)
chain: LDNGLARTPTMGWLHWERFMCNLDCQEEPDSCISEKLFMEMAELMVSEGWKDAGYEYLCIDDCWMAPQRDSEGRLQADPQRFPHGIRQLANYVHSKGLKLGIYADVGNKTCAGFPGSFGYYDIDAQTFADWGVDLLKFDGCYCDSLENLADGYKRMSLALNRTGRSIVYSCEWPLYMWPFQKPNYTEIRQYCNHWRNFADIDDSWKSIKSILDWTSFNQERIVDVAGPGGWNDPDMLVIGNFGLSWNQQVTQMALWAIMAAPLFMSNDLRHISPQAKALLQDKDVIAINQDPLGKQGYQLRQGDNFEVWERPLSGLAWAVAMINRQEIGGPRSYTIAVASLGKGVACNPACFITQLLPVKRKLGFYEWTSRLRSHINPTGTVLLQLENTMQMSKDLLL
modifications: Synthetic Polypeptide sequence of Variant No. 65 of mature Human GLA
B2: 71 (protein)
chain: B1 chain with I123T, R155H, T369N
modifications: Synthetic Polypeptide sequence of Variant No. 71 of mature Human GLA
B3: 69 (protein)
chain: B1 chain with I102L, R155H
modifications: Synthetic Polypeptide sequence of Variant No. 69 of mature Human GLA
B4: 76 (protein)
chain: B1 chain with R155H, K206R, K394L, D395K, L396D
modifications: Synthetic Polypeptide sequence of Variant No. 76
B5: 66 (protein)
chain: B1 chain with R155T
modifications: Synthetic Polypeptide sequence of Variant No. 66 of mature Human GLA
B6: 72 (protein)
chain: B1 chain with R155H, I167V
modifications: Synthetic Polypeptide sequence of Variant No. 72 of mature Human GLA
B7: 70 (protein)
chain: B1 chain with I102L, R155H, K394V
modifications: Synthetic Polypeptide sequence of Variant No. 70 of mature Human GLA
B8: 67 (protein)
chain: B1 chain with R155E
modifications: Synthetic Polypeptide sequence of Variant No. 67 of mature Human GLA
B9: 73 (protein)
chain: B1 chain with R155H, K206A, K394L, D395K, L396D
modifications: Synthetic Polypeptide sequence of Variant No. 73
B10: 75 (protein)
chain: B1 chain with R155H, K206Q
modifications: Synthetic Polypeptide sequence of Variant No. 75 of mature Human GLA
B11: 68 (protein)
chain: B1 chain with H84S, R155H
modifications: Synthetic Polypeptide sequence of Variant No. 68 of mature Human GLA
B12: 74 (protein)
chain: B1 chain with R155H, K206M
modifications: Synthetic Polypeptide sequence of Variant No. 74 of mature Human GLA

Columns and labels:
Format in all cases: biochemical
[1] = HTP-analysis of supernatants pretreated with acid (MUGal hydrolysis); settings: challenge at pH 4.2; activity of the variant/activity of WT GLA (SEQ ID NO: 5); yeast supernatant
Summary of the method: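 Supernatants from INVSc1 yeast secreting GLA variants were challenged at 37° C. for 1-3 h in McIlvaine buffer at pH 3.3-4.3. Residual activity was then measured on 4 mM MUGal substrate stock at pH 4.8 with citrate buffer pH 4.3, over 30-180 min at 37° C. Reactions were quenched with sodium carbonate and read by fluorescence (Ex 355/Em 448 nm).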

[2] = HTP-analysis of yeast culture supernatants, no challenge (MUGal hydrolysis); settings: activity of the variant/activity of WT GLA (SEQ ID NO: 5), yeast supernatant
Summary of the method: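 GLA variants were expressed in INVSc1 yeast grown in SD-Ura broth with glucose at 30° C., and culture supernatants were collected after 66-84 h. Supernatant was mixed with McIlvaine buffer pH 4.8 and MUGal (2 mM stock) in 50 mM citrate, 200 mM KCl, pH 4.6, incubated at 37° C. for 30-180 minutes, then quenched with sodium carbonate.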

[3] = HTP-analysis of supernatants pretreated with base (MUGal hydrolysis); settings: challenge at pH 7.1; activity of the variant/activity of WT GLA (SEQ ID NO: 5); yeast supernatant
Summary of the method: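 Supernatants from INVSc1 yeast expressing GLA variants (SD-Ura, 66-84 h, 30° C) were mixed with McIlvaine buffer pH 7.0-8.2 or 200 mM sodium bicarbonate pH 9.1-9.7 and held 1-18 h at 37° C. Residual activity was then measured on MUGal at pH 4.8/4.3, 37° C, 30-180 min, by fluorescence (Ex 355/Em 448 nm).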

Molecule	Relative Activity of GLA Variants After Challenge at pH 4.2 [1]	Relative Activity of GLA Variants After No Challenge (NC) [2]	Relative Activity of GLA Variants After Challenge at pH 7.1 [3]
B1	+ (+ = 0.5 to 1.5 relative activity over WT GLA (SEQ ID NO: 5))	+ (+ = 0.5 to 1.5 relative activity over WT GLA (SEQ ID NO: 5))	+ (+ = 0.5 to 1.5 relative activity over WT GLA (SEQ ID NO: 5))
B2	+ (+ = 0.5 to 1.5 relative activity over WT GLA (SEQ ID NO: 5))	++ (++ = >1.5 to 2.5 relative activity over WT GLA (SEQ ID NO: 5))	++ (++ = >1.5 to 2.5 relative activity over WT GLA (SEQ ID NO: 5))
B3	+ (+ = 0.5 to 1.5 relative activity over WT GLA (SEQ ID NO: 5))	+ (+ = 0.5 to 1.5 relative activity over WT GLA (SEQ ID NO: 5))	+ (+ = 0.5 to 1.5 relative activity over WT GLA (SEQ ID NO: 5))
B4	+++ (+++ = >2.5 relative activity over WT GLA (SEQ ID NO: 5))	+ (+ = 0.5 to 1.5 relative activity over WT GLA (SEQ ID NO: 5))	++ (++ = >1.5 to 2.5 relative activity over WT GLA (SEQ ID NO: 5))
B5	+ (+ = 0.5 to 1.5 relative activity over WT GLA (SEQ ID NO: 5))	+ (+ = 0.5 to 1.5 relative activity over WT GLA (SEQ ID NO: 5))	+ (+ = 0.5 to 1.5 relative activity over WT GLA (SEQ ID NO: 5))
B6	+ (+ = 0.5 to 1.5 relative activity over WT GLA (SEQ ID NO: 5))	+ (+ = 0.5 to 1.5 relative activity over WT GLA (SEQ ID NO: 5))	+ (+ = 0.5 to 1.5 relative activity over WT GLA (SEQ ID NO: 5))
B7	+ (+ = 0.5 to 1.5 relative activity over WT GLA (SEQ ID NO: 5))	+ (+ = 0.5 to 1.5 relative activity over WT GLA (SEQ ID NO: 5))	+ (+ = 0.5 to 1.5 relative activity over WT GLA (SEQ ID NO: 5))
B8	+ (+ = 0.5 to 1.5 relative activity over WT GLA (SEQ ID NO: 5))	++ (++ = >1.5 to 2.5 relative activity over WT GLA (SEQ ID NO: 5))	++ (++ = >1.5 to 2.5 relative activity over WT GLA (SEQ ID NO: 5))
B9	+++ (+++ = >2.5 relative activity over WT GLA (SEQ ID NO: 5))	+ (+ = 0.5 to 1.5 relative activity over WT GLA (SEQ ID NO: 5))	++ (++ = >1.5 to 2.5 relative activity over WT GLA (SEQ ID NO: 5))
B10	+++ (+++ = >2.5 relative activity over WT GLA (SEQ ID NO: 5))	+ (+ = 0.5 to 1.5 relative activity over WT GLA (SEQ ID NO: 5))	++ (++ = >1.5 to 2.5 relative activity over WT GLA (SEQ ID NO: 5))
B11	++ (++ = >1.5 to 2.5 relative activity over WT GLA (SEQ ID NO: 5))	+ (+ = 0.5 to 1.5 relative activity over WT GLA (SEQ ID NO: 5))	+ (+ = 0.5 to 1.5 relative activity over WT GLA (SEQ ID NO: 5))
B12	+++ (+++ = >2.5 relative activity over WT GLA (SEQ ID NO: 5))	+ (+ = 0.5 to 1.5 relative activity over WT GLA (SEQ ID NO: 5))	++ (++ = >1.5 to 2.5 relative activity over WT GLA (SEQ ID NO: 5))
